The target in the experiment is rat brain farnesyl:protein transferase (rat) (UniProt Q04631). Put plainly: cell-based or functional assay.

As for “CVIM with lysine at the X position (peptide)”, the concentration required for inhibition is over 40 µM and the fold decrease in affinity for the enzyme against CVIM, as estimated by the concentration required for 50% inhibition is over 30 fold. Substance “CVIM with glycine at the X position (peptide)” yielded a concentration required for inhibition of over 40 µM. Take “CVIM with glutamic acid at the A2 position (peptide)”: the fold decline in affinity for the enzyme was over 50 fold. The substance “CVIM with glutamic acid at the X position (peptide)” returned a concentration required for inhibition of over 40 µM. “CVIM with glycine at the A2 position (peptide)” registered a concentration giving 50% inhibition of 8 µM. For the substance “CVIM with lysine at the A2 position (peptide)”, the fold decline in affinity for the enzyme is over 50 fold and the fold decrease in affinity for the enzyme against CVIM, as estimated by the concentration required for 50% inhibition was over 30 fold.

The values above are taken from patent US6790633.
